Key:
Settings in all cases: both partners purified
[1] = molecular target: T1, human Juno ectodomain, wild type (Juno-His10-SpyTag-LPETGG) (human, glycosylated (sites not given); SpyTag joined by an isopeptide bond to a SpyCatcher polyprotein); experiment: flow cytometry-based bead-binding assay; Juno held on 3.75 µm polystyrene beads through the ybbR AFM-handle; Izumo1 labelled with SpyCatcher-GFP, 5-fold dilution series of 7 dilutions from 100x the expected KD, 3 h, 0.1% tween 20 in TBS-G (20 mM Tris-HCl, 300 mM NaCl, 10% glycerol, pH 8.0); Hill equation fitted
T1 construct: Juno, human, ectodomain (ECD), UniProt A6ND01; the stretch between the HBM signal peptide and His10 in the printed construct; the printed construct has a D between the signal's ...YIYA and G20 that may stay on the mature protein; also called Folr4; Izumo1r; source: Sf9 (ExpiSF) cells, baculovirus, secreted, purified (Ni resin, SEC); not shown: HBM secretion signal peptide, N-terminal, cleaved; …

[2] = molecular target: T2, human Juno ectodomain H177Q, infertility-associated variant (JunoH177Q-His10-SpyTag-LPETGG) (human, H177Q (stands in the printed letters), glycosylated (sites not given); SpyTag joined by an isopeptide bond to a SpyCatcher polyprotein); experiment: as above
T2 construct: Juno, human, ectodomain (ECD), UniProt A6ND01, natural variant H177Q found in patients; also called HBM-JunoH177Q-His10-SpyTag-LPETGG; source: Sf9 (ExpiSF) cells, baculovirus, secreted, purified (Ni resin, SEC); not shown: HBM secretion signal peptide, N-terminal, cleaved; His10, C-terminal, kept; SpyTag, C-terminal, kept; LPETGG sortase motif, C-terminal, kept

[3] = molecular target: T1, human Juno ectodomain, wild type …; experiment: AFM single-molecule force spectroscopy (constant speed); Izumo1 on the cantilever and Juno on the cover glass, each covalently held by its C-terminus through a ddFLN4-ELP-ybbR handle; contact 0.2 s, retraction at 800, 1600, 3200, 6400 nm·s^−1; PBS pH 7.4

T1 sequence (chain, as listed by the source): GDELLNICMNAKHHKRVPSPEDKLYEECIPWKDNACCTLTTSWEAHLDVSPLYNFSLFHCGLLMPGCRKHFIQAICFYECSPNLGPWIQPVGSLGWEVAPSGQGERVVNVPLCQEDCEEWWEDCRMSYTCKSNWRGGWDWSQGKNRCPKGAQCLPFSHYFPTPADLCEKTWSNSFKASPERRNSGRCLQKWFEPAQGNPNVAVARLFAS
T2 sequence (chain, as listed by the source with the stated changes): as the sequence (chain, as listed by the source) above, with H158Q counted along it

Binder	Kd [1] [nM]	Kd [2] [nM]	binding result [3]
human Izumo1 ectodomain, wild type (Izumo1-His10-SpyTag-LPETGG) (domain or fragment, glycosylated (sites not given); SpyTag joined by an isopeptide bond to a SpyCatcher polyprotein, Izumo1, human, ectodomain (ECD), UniProt Q8IYV9; the stretch between the HEM signal peptide and His10 in the printed construct; also called HEM-Izumo1-His10-SpyTag-LPETGG; Izumo1-GFP; source: Sf9 (ExpiSF) cells, baculovirus, secreted, purified (Ni resin, SEC); not shown: HEM secretion signal peptide, N-terminal, cleaved; His10, C-terminal, kept; SpyTag, C-terminal, kept; LPETGG sortase motif, …) CVICDPSVVLALKSLEKDYLPGHLDAKHHKAMMERVENAVKDFQELSLNEDAYMGVVDEATLQKGSWSLLKDLKRITDSDVKGDLFVKELFWMLHLQKETFATYVARFQKEAYCPNKCGVMLQTLIWCKNCKKEVHACRKSYDCGERNVEVPQMEDMILDCELNWHQASEGLTDYSFYRVWGNNTETLVSKGKEATLTKPMVGPEDAGSYRCELGSVNSSPATIINFHVTVLP	45	64	
human Izumo1 ectodomain K150A (Izumo1K150A-His10-SpyTag-LPETGG) (domain or fragment, glycosylated (sites not given); SpyTag joined by an isopeptide bond to a SpyCatcher polyprotein, Izumo1, human, ectodomain (ECD), UniProt Q8IYV9, with K150A; also called HEM-Izumo1K150A-His10-SpyTag-LPETGG; source: Sf9 (ExpiSF) cells, baculovirus, secreted, purified (Ni resin, SEC); not shown: HEM secretion signal peptide, N-terminal, cleaved; His10, C-terminal, kept; SpyTag, C-terminal, kept; LPETGG sortase motif, C-terminal, kept) CVICDPSVVLALKSLEKDYLPGHLDAKHHKAMMERVENAVKDFQELSLNEDAYMGVVDEATLQKGSWSLLKDLKRITDSDVKGDLFVKELFWMLHLQKETFATYVARFQKEAYCPNKCGVMLQTLIWCANCKKEVHACRKSYDCGERNVEVPQMEDMILDCELNWHQASEGLTDYSFYRVWGNNTETLVSKGKEATLTKPMVGPEDAGSYRCELGSVNSSPATIINFHVTVLP	110		
human Izumo1 ectodomain H157A (Izumo1H157A-His10-SpyTag-LPETGG) (domain or fragment, glycosylated (sites not given); SpyTag joined by an isopeptide bond to a SpyCatcher polyprotein, Izumo1, human, ectodomain (ECD), UniProt Q8IYV9, with H157A; also called HEM-Izumo1H157A-His10-SpyTag-LPETGG; source: Sf9 (ExpiSF) cells, baculovirus, secreted, purified (Ni resin, SEC); not shown: HEM secretion signal peptide, N-terminal, cleaved; His10, C-terminal, kept; SpyTag, C-terminal, kept; LPETGG sortase motif, C-terminal, kept) CVICDPSVVLALKSLEKDYLPGHLDAKHHKAMMERVENAVKDFQELSLNEDAYMGVVDEATLQKGSWSLLKDLKRITDSDVKGDLFVKELFWMLHLQKETFATYVARFQKEAYCPNKCGVMLQTLIWCKNCKKEVAACRKSYDCGERNVEVPQMEDMILDCELNWHQASEGLTDYSFYRVWGNNTETLVSKGKEATLTKPMVGPEDAGSYRCELGSVNSSPATIINFHVTVLP			binds
human Izumo1 ectodomain R160A (Izumo1R160A-His10-SpyTag-LPETGG) (domain or fragment, glycosylated (sites not given); SpyTag joined by an isopeptide bond to a SpyCatcher polyprotein, Izumo1, human, ectodomain (ECD), UniProt Q8IYV9, with R160A; also called HEM-Izumo1R160A-His10-SpyTag-LPETGG; source: Sf9 (ExpiSF) cells, baculovirus, secreted, purified (Ni resin, SEC); not shown: HEM secretion signal peptide, N-terminal, cleaved; His10, C-terminal, kept; SpyTag, C-terminal, kept; LPETGG sortase motif, C-terminal, kept) CVICDPSVVLALKSLEKDYLPGHLDAKHHKAMMERVENAVKDFQELSLNEDAYMGVVDEATLQKGSWSLLKDLKRITDSDVKGDLFVKELFWMLHLQKETFATYVARFQKEAYCPNKCGVMLQTLIWCKNCKKEVHACAKSYDCGERNVEVPQMEDMILDCELNWHQASEGLTDYSFYRVWGNNTETLVSKGKEATLTKPMVGPEDAGSYRCELGSVNSSPATIINFHVTVLP			binds
human Izumo1 ectodomain E71A (Izumo1E71A-His10-SpyTag-LPETGG) (domain or fragment, glycosylated (sites not given); SpyTag joined by an isopeptide bond to a SpyCatcher polyprotein, Izumo1, human, ectodomain (ECD), UniProt Q8IYV9, with E71A; also called HEM-Izumo1E71A-His10-SpyTag-LPETGG; source: Sf9 (ExpiSF) cells, baculovirus, secreted, purified (Ni resin, SEC); not shown: HEM secretion signal peptide, N-terminal, cleaved; His10, C-terminal, kept; SpyTag, C-terminal, kept; LPETGG sortase motif, C-terminal, kept) CVICDPSVVLALKSLEKDYLPGHLDAKHHKAMMERVENAVKDFQELSLNADAYMGVVDEATLQKGSWSLLKDLKRITDSDVKGDLFVKELFWMLHLQKETFATYVARFQKEAYCPNKCGVMLQTLIWCKNCKKEVHACRKSYDCGERNVEVPQMEDMILDCELNWHQASEGLTDYSFYRVWGNNTETLVSKGKEATLTKPMVGPEDAGSYRCELGSVNSSPATIINFHVTVLP			binds

— article PMC12381214, “Multi-state catch bond formed in the Izumo1:Juno complex that initiates human fertilization” (Nature Communications, 2025)
